The target of the experiment is biotinylated hPD-L1 (extracellular domain of human PD-L1, Ala18 to Thr239, expressed in E. coli, non-glycosylated) (human). The experiment in a line: [35S]-labeled truncated variant on immobilized hPD-L1, normalized to [35S]-SPAM.

*1 amine or outer side, *2 acyl side, *3 side chain or, on linkers, in order; H or OH if unused. Where no end group is shown, it is not given here. [ ]: non-standard residue; d: D form. Met(35S) = [35S]-methionine label, C[35S]CC[C@H](N[*:1])C(=O)[*:2]

For the molecule [Met(35S)]DHILNKFWILHYAGSGSSGHHHHHHSS [Trunc 4 (SPAM with P2, I3, F4 and L5 deleted)], the binding as compared with full-length SPAM was less than 25%.
With [Met(35S)]LDHILNKFWILHYAGSGSSGHHHHHHSS [Trunc 3 (SPAM with P2, I3 and F4 deleted)], the binding as compared with full-length SPAM is less than 25%.

For the origin of these results see patent US20230174616A1.
